B1: Bacillus subtilis β sliding clamp (β subunit of DNA polymerase III) (natural protein, UniProt P05649 1-378, looked up)
chain: MKFTIQKDRLVESVQDVLKAVSSRTTIPILTGIKIVASDDGVSFTGSDSDISIESFIPKEEGDKEIVTIEQPGSIVLQARFFSEIVKKLPMATVEIEVQNQYLTIIRSGKAEFNLNGLDADEYPHLPQIEEHHAIQIPTDLLKNLIRQTVFAVSTSETRPILTGVNWKVEQSELLCTATDSHRLALRKAKLDIPEDRSYNVVIPGKSLTELSKILDDNQELVDIVITETQVLFKAKNVLFFSRLLDGNYPDTTSLIPQDSKTEIIVNTKEFLQAIDRASLLAREGRNNVVKLSAKPAESIEISSNSPEIGKVVEAIVADQIEGEELNISFSPKYMLDALKVLEGAEIRVSFTGAMRPFLIRTPNDETIVQLILPVRTY

Assays:
Experiment in all cases: cross-linking
[1] = molecular target: B1
cross-linking = molecular target: the molecule itself
[2] = molecular target: Escherichia coli β sliding clamp (β subunit of DNA polymerase III) (Escherichia coli, UniProt P0A988 1-366)
Escherichia coli β sliding clamp (β subunit of DNA polymerase III), sequence (P0A988 whole entry): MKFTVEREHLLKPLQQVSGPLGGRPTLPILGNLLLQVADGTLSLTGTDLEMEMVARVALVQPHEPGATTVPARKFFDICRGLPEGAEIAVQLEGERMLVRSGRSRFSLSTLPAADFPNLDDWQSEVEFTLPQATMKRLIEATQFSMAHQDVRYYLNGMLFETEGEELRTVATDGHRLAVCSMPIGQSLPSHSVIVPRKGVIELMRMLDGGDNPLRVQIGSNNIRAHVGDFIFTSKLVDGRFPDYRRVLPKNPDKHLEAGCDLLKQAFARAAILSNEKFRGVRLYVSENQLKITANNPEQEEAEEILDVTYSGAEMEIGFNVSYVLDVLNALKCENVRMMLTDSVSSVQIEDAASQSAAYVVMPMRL

Binder | binding result [1] | stoichiometry N (cross-linking) | binding result [2]
C-terminal domain of Escherichia coli MutL (domain or fragment, UniProt P23367 432-615, looked up) SQSFGRVLTIVHSDCALLERDGNISLLSLPVAERWLRQAQLTPGEAPVCAQPLLIPLRLKVSAEEKSALEKAQSALAELGIDFQSDAQHVTIRAVPLPLRQQNLQILIPELIGYLAKQSVFEPGNIAQWIARNLMSEHAQWSMAQAITLLADVERLCPQLVKTPPGGLLQSVDLHPAIKALKDE | binds | ≥ 2 | 
B1 |  | 2 | 
regulatory subdomain of Escherichia coli MutL (domain or fragment, UniProt P23367 466-569, looked up) WLRQAQLTPGEAPVCAQPLLIPLRLKVSAEEKSALEKAQSALAELGIDFQSDAQHVTIRAVPLPLRQQNLQILIPELIGYLAKQSVFEPGNIAQWIARNLMSEH |  |  | binds
regulatory subdomain of Bacillus subtilis MutL (domain or fragment, UniProt P49850 471-574, looked up) KYEYFREKVGEVEPEVQEMIVPLTFHYSTNEALIIEQHKQELESVGVFLESFGSNSYIVRCHPAWFPKGEEAELIEEIIQQVLDSKNIDIKKLREEAAIMMSCK | binds |  | 
C-terminal (endonuclease) domain of Bacillus subtilis MutL (domain or fragment, UniProt P49850 433-627, looked up) SDRVPIMYPIGQMHGTYILAQNENGLYIIDQHAAQERIKYEYFREKVGEVEPEVQEMIVPLTFHYSTNEALIIEQHKQELESVGVFLESFGSNSYIVRCHPAWFPKGEEAELIEEIIQQVLDSKNIDIKKLREEAAIMMSCKGSIKANRHLRNDEIKALLDDLRSTSDPFTCPHGRPIIIHHSTYEMEKMFKRVM |  | 2 | binds

From publication PMC3028594 (DNA repair, 2010)
